Experiments:
[1] = target: T1, Peptide_004 (human); assay: peptide microarray, 1 ug/mL
T1 construct: 15-mer on microarray; not native form, recombinant insert region
T1 peptide: AADVHSQHHHHHHHH
Method: (§1) 5, 1, 0.2, 0.04, 0.008 and 0.0016 μg/mL serial dilutions were incubated on a single multi-well microarray slide at 30° C. for 1 hour. The slide includes 21 individual mini-arrays (one mini-array per sample dilution).
(§2) DyLight 650 was used as a label. False-positive binding to a peptide was evaluated by performing one additional control incubation in which only a secondary antibody was applied on the same microarray slide. Before performing each step, the microarrays were washed with a washing buffer.

[2] = target: T2, Peptide_005 (human); assay: peptide microarray, 1 ug/mL
T2 construct: 15-mer on microarray; not native form, recombinant insert region
T2 peptide: ADVHSQHHHHHHHHV
Method: as §1, §2

[3] = target: T1, Peptide_004; assay: peptide microarray, 0.0016 ug/mL
Method: as §1, §2

[4] = target: T2, Peptide_005; assay: peptide microarray, 0.0016 ug/mL
Method: as §1, §2

[5] = target: T3, Peptide_012 (human); assay: peptide microarray, 1 ug/mL
T3 construct: 15-mer on microarray; not native form, includes recombinant insert region
T3 peptide: HHHHHHHVKQIESKT
Method: as §1, §2

[6] = target: T4, Peptide_013 (human); assay: peptide microarray, 1 ug/mL
T4 construct: 15-mer on microarray; not native form, includes recombinant insert region
T4 peptide: HHHHHHVKQIESKTA
Method: as §1, §2

[7] = target: T5, Peptide_014 (human); assay: peptide microarray, 1 ug/mL
T5 construct: 15-mer on microarray; not native form, includes recombinant insert region
T5 peptide: HHHHHVKQIESKTAF
Method: as §1, §2

[8] = target: T6, Peptide_015 (human); assay: peptide microarray, 1 ug/mL
T6 construct: 15-mer on microarray; not native form, includes recombinant insert region
T6 peptide: HHHHVKQIESKTAFQ
Method: as §1, §2

[9] = target: T7, Peptide_018 (human); assay: peptide microarray, 1 ug/mL
T7 construct: 15-mer on microarray; not native form, includes recombinant insert region; also called HVKQIESKTAFQEAL
T7 peptide: HVKQIESKTAFQEAL
Method: as §1, §2

[10] = target: T8, Peptide_019 (human); assay: peptide microarray, 1 ug/mL
T8 construct: 15-mer of hTrx1 on microarray
T8 peptide: VKQIESKTAFQEALD
Method: as §1, §2

[11] = target: T9, Peptide_020 (human); assay: peptide microarray, 1 ug/mL
T9 construct: 15-mer of hTrx1 on microarray
T9 peptide: KQIESKTAFQEALDA
Method: as §1, §2

[12] = target: T10, Peptide_021 (human); assay: peptide microarray, 1 ug/mL
T10 construct: 15-mer of hTrx1 on microarray
T10 peptide: QIESKTAFQEALDAA
Method: as §1, §2

[13] = target: T11, Peptide_022 (human); assay: peptide microarray, 1 ug/mL
T11 construct: 15-mer of hTrx1 on microarray
T11 peptide: IESKTAFQEALDAAG
Method: as §1, §2

[14] = target: T12, Peptide_023 (human); assay: peptide microarray, 1 ug/mL
T12 construct: 15-mer of hTrx1 on microarray
T12 peptide: ESKTAFQEALDAAGD
Method: as §1, §2

[15] = target: T13, Peptide_024 (human); assay: peptide microarray, 1 ug/mL
T13 construct: 15-mer of hTrx1 on microarray
T13 peptide: SKTAFQEALDAAGDK
Method: as §1, §2

[16] = target: T14, Peptide_025 (human); assay: peptide microarray, 1 ug/mL
T14 construct: 15-mer of hTrx1 on microarray
T14 peptide: KTAFQEALDAAGDKL
Method: as §1, §2

[17] = target: T15, Peptide_045 (human); assay: peptide microarray, 1 ug/mL
T15 construct: 15-mer of hTrx1 on microarray
T15 peptide: SATWCGPCKMIKPFF
Method: as §1, §2

[18] = target: T16, Peptide_051 (human); assay: peptide microarray, 1 ug/mL
T16 construct: 15-mer of hTrx1 on microarray
T16 peptide: PCKMIKPFFHSLSEK
Method: as §1, §2

[19] = target: T17, Peptide_084 (human); assay: peptide microarray, 1 ug/mL
T17 construct: 15-mer of hTrx1 on microarray
T17 peptide: SECEVKCMPTFQFFK
Method: as §1, §2

[20] = target: T18, Peptide_085 (human); assay: peptide microarray, 1 ug/mL
T18 construct: 15-mer of hTrx1 on microarray
T18 peptide: ECEVKCMPTFQFFKK
Method: as §1, §2

[21] = target: T19, Peptide_086 (human); assay: peptide microarray, 1 ug/mL
T19 construct: 15-mer of hTrx1 on microarray
T19 peptide: CEVKCMPTFQFFKKG
Method: as §1, §2

[22] = target: T20, Peptide_092 (human); assay: peptide microarray, 1 ug/mL
T20 construct: 15-mer of hTrx1 on microarray
T20 peptide: PTFQFFKKGQKVGEF
Method: as §1, §2

[23] = target: T21, Peptide_093 (human); assay: peptide microarray, 1 ug/mL
T21 construct: 15-mer of hTrx1 on microarray
T21 peptide: TFQFFKKGQKVGEFS
Method: as §1, §2

[24] = target: T22, Peptide_094 (human); assay: peptide microarray, 1 ug/mL
T22 construct: 15-mer of hTrx1 on microarray
T22 peptide: FQFFKKGQKVGEFSG
Method: as §1, §2

[25] = target: T23, Peptide_095 (human); assay: peptide microarray, 1 ug/mL
T23 construct: 15-mer of hTrx1 on microarray
T23 peptide: QFFKKGQKVGEFSGA
Method: as §1, §2

[26] = target: T3, Peptide_012; assay: peptide microarray, 0.0016 ug/mL
Method: as §1, §2

[27] = target: T4, Peptide_013; assay: peptide microarray, 0.0016 ug/mL
Method: as §1, §2

[28] = target: T5, Peptide_014; assay: peptide microarray, 0.0016 ug/mL
Method: as §1, §2

[29] = target: T7, Peptide_018; assay: peptide microarray, 0.0016 ug/mL
Method: as §1, §2

[30] = target: T8, Peptide_019; assay: peptide microarray, 0.0016 ug/mL
Method: as §1, §2

[31] = target: T9, Peptide_020; assay: peptide microarray, 0.0016 ug/mL
Method: as §1, §2

[32] = target: T10, Peptide_021; assay: peptide microarray, 0.0016 ug/mL
Method: as §1, §2

[33] = target: T11, Peptide_022; assay: peptide microarray, 0.0016 ug/mL
Method: as §1, §2

[34] = target: T12, Peptide_023; assay: peptide microarray, 0.0016 ug/mL
Method: as §1, §2

[35] = target: T13, Peptide_024; assay: peptide microarray, 0.0016 ug/mL
Method: as §1, §2

[36] = target: T14, Peptide_025; assay: peptide microarray, 0.0016 ug/mL
Method: as §1, §2

[37] = target: T15, Peptide_045; assay: peptide microarray, 0.0016 ug/mL
Method: as §1, §2

[38] = target: T16, Peptide_051; assay: peptide microarray, 0.0016 ug/mL
Method: as §1, §2

[39] = target: T18, Peptide_085; assay: peptide microarray, 0.0016 ug/mL
Method: as §1, §2

[40] = target: T19, Peptide_086; assay: peptide microarray, 0.0016 ug/mL
Method: as §1, §2

[41] = target: T21, Peptide_093; assay: peptide microarray, 0.0016 ug/mL
Method: as §1, §2

[42] = target: T23, Peptide_095; assay: peptide microarray, 0.0016 ug/mL
Method: as §1, §2

B1: monoclonal antibody B266-1 (antibody, human IgG1)
light: QIVLTQSPAIMSASPGEKVTMTCSASSRISYMYWYQQKPGTSPKRWIYDTSKLASGVPARFSGSGSGTSYSLTISTMEAEDAATYYCHQRSSYPTFGAGTKLELKSVAAPSVFIFPPSDEQLKSGTASVVCLLNNFYPREAKVQWKVDNALQSGNSQESVTEQDSKDSTYSLSSTLTLSKADYEKHKVYACEVTHQGLSSPVTKSFNRGEC
heavy: not shown
notes: B266 with the Fc part changed to human IgG1; also called B266-1 (Trx1-hIgG1); B266-1 (hTrx1-hIgG1)
Question: What does the source list for B1?
Answer: signal (blank-control = 1) [1]: 2.71; signal (blank-control = 1) [2]: 3.58; signal (blank-control = 1) [3]: 0.99; signal (blank-control = 1) [4]: 1.6

B2: monoclonal antibody B264 (antibody, mouse IgG1, kappa, V domains shown)
VH: QVQLQQSGAELARPGASVKMSCKASGYTFTSYTMHWVKQRPGQGLEWIGYINPTSDYTNYNQKFKDKATLTADKSSSTAYMQLSSLTSEDSAVYFCASEGGFLYYFDYWGQGTTLTVSS
VL: DVLMTQTPLSLPVSLGDQASISCRSSQSIVHSNGNTYLEWYLQKPGQSPKLLIYKVSNRFSGVPDRFSGSGSGTDFTLKISRVEAEDLGVYYCFQGSHVPYTFGGGTKLEIKR
notes: also called AB264; B264 (Trx1-mIgG1)
Question: What does the source list for B2?
Answer: signal (blank-control = 1) [5]: 3.65; signal (blank-control = 1) [6]: 4.05; signal (blank-control = 1) [7]: 6.71; signal (blank-control = 1) [8]: 5.11; signal (blank-control = 1) [9]: 5.52; signal (blank-control = 1) [10]: 1.67; signal (blank-control = 1) [11]: 2.3; signal (blank-control = 1) [12]: 2.48; signal (blank-control = 1) [13]: 5.88; signal (blank-control = 1) [14]: 1.19; signal (blank-control = 1) [15]: 6.5; signal (blank-control = 1) [16]: 7.24; signal (blank-control = 1) [17]: 5.11; signal (blank-control = 1) [18]: 3.91; signal (blank-control = 1) [19]: 3.26; signal (blank-control = 1) [20]: 3.56; signal (blank-control = 1) [21]: 1.56; signal (blank-control = 1) [22]: 9.76; signal (blank-control = 1) [23]: 5.33; signal (blank-control = 1) [24]: 3.26; signal (blank-control = 1) [25]: 3.52; signal (blank-control = 1) [26]: 0.81; signal (blank-control = 1) [27]: 0.75; signal (blank-control = 1) [28]: 0.69; signal (blank-control = 1) [29]: 0.68; signal (blank-control = 1) [30]: 0.85; signal (blank-control = 1) [31]: 0.71; signal (blank-control = 1) [32]: 0.73; signal (blank-control = 1) [33]: 0.72; signal (blank-control = 1) [34]: 0.78; signal (blank-control = 1) [35]: 0.72; signal (blank-control = 1) [36]: 0.88; signal (blank-control = 1) [37]: 4.08; signal (blank-control = 1) [38]: 0.58; signal (blank-control = 1) [39]: 0.65; signal (blank-control = 1) [40]: 0.82; signal (blank-control = 1) [41]: 1.12; signal (blank-control = 1) [42]: 1.07

Source: patent US20240192215A1 (E AND S HEALTHCARE, published 2024)
